The values that follow come from paper PMC3194040.

The test addresses Recombinant full-length His6-tagged DEG7 (Ser206Ala) (Arabidopsis thaliana). The experiment in a line: SEC. Background: In gel filtration, larger molecules generally elute earlier.

Consider “Recombinant full-length His6-tagged DEG7 (Ser206Ala) (enzyme)”, for which the stoichiometry N came to 3.

By stoichiometry N is commonly meant the number of molecules, sites or subunits per partner or assembly.
